Measurements as given in FireProtDB (doi:10.1021/bi012084+).

Conditions: Geobacillus stearothermophilus; pH 7.5; Thermal; DSC; KH2PO4/KOH 100 mM; reversible: no; whole UniProt chain shown

B1: Glyceraldehyde-3-phosphate dehydrogenase wild type, P00362 (protein)
chain: MAVKVGINGFGRIGRNVFRAALKNPDIEVVAVNDLTDANTLAHLLKYDSVHGRLDAEVSVNGNNLVVNGKEIIVKAERDPENLAWGEIGVDIVVESTGRFTKREDAAKHLEAGAKKVIISAPAKNEDITIVMGVNQDKYDPKAHHVISNASCTTNCLAPFAKVLHEQFGIVRGMMTTVHSYTNDQRILDLPHKDLRRARAAAESIIPTTTGAAKAVALVLPELKGKLNGMAMRVPTPNVSVVDLVAELEKEVTVEEVNAALKAAAEGELKGILAYSEEPLVSRDYNGSTVSSTIDALSTMVIDGKMVKVVSWYDNETGYSHRVVDLAAYIASKGL
- unfolding enthalpy (calorimetric): 408 kcal/mol
